Measured values reported in PMC3979344 (Virology, 2013).

How the values were obtained:
[1] = molecular target: HVEM(200t), soluble herpesvirus entry mediator (UniProt Q92956); assay: SPR
[2] = molecular target: T1, nectin-1(346t), soluble nectin-1 (UniProt Q15223 31-346); assay: SPR
T1 sequence (looked up): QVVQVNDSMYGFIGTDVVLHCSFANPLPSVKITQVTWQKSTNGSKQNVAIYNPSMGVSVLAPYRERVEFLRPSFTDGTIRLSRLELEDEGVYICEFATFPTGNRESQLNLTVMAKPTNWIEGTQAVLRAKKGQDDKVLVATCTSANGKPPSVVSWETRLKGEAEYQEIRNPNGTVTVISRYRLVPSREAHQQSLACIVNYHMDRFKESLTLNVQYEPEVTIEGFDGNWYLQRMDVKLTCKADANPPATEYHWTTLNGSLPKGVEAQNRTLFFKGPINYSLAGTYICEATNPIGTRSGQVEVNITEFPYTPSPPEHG

Molecule “gD(3C-38C)306t (from UniProt Q69091 26-331) (domain or fragment)” has a Kd [1] of 2390 nM.

B1: gD(306t), soluble ectodomain of HSV-1 glycoprotein D (domain or fragment)
chain: KYALADASLKMADPNRFRGKDLPVLDQLTDPPGVRRVYHIQAGLPDPFQPPSLPITVYYAVLERACRSVLLNAPSEAPQIVRGASEDVRKQPYNLTIAWFRMGGNCAIPITVMEYTECSYNKSLGACPIRTQPRWNYYDSFSAVSEDNLGFLMHAPAFETAGTYLRLVKINDWTEITQFILEHRAKGSCKYALPLRIPPSACLSPQAYQQGVTVDSIGMLPRFIPENQRTVAVYSLKIAGWHGPKAPYTSTLLPPELSETPNATQPELAPEDPEDSALLEDPVGTVAPQIPPNWHIPSIQDAATPY
B1 was tested, and the Kd [2] was 1740 nM.

B2: gD(285t) (domain or fragment)
chain: KYALADASLKMADPNRFRGKDLPVLDQLTDPPGVRRVYHIQAGLPDPFQPPSLPITVYYAVLERACRSVLLNAPSEAPQIVRGASEDVRKQPYNLTIAWFRMGGNCAIPITVMEYTECSYNKSLGACPIRTQPRWNYYDSFSAVSEDNLGFLMHAPAFETAGTYLRLVKINDWTEITQFILEHRAKGSCKYALPLRIPPSACLSPQAYQQGVTVDSIGMLPRFIPENQRTVAVYSLKIAGWHGPKAPYTSTLLPPELSETPNATQPELAPEDPEDSALLEDPVGT
Work on B2 yielded a Kd [2] of 71.3 nM.

B3: gD(23-285t) (domain or fragment)
chain: PVLDQLTDPPGVRRVYHIQAGLPDPFQPPSLPITVYYAVLERACRSVLLNAPSEAPQIVRGASEDVRKQPYNLTIAWFRMGGNCAIPITVMEYTECSYNKSLGACPIRTQPRWNYYDSFSAVSEDNLGFLMHAPAFETAGTYLRLVKINDWTEITQFILEHRAKGSCKYALPLRIPPSACLSPQAYQQGVTVDSIGMLPRFIPENQRTVAVYSLKIAGWHGPKAPYTSTLLPPELSETPNATQPELAPEDPEDSALLEDPVGT
In the case of B3, the Kd [2] is reported as 65.7 nM.
